Columns and labels:
[1] = biological target: αvβ3 and αvβ5 integrins on cells that express both (M21, A375S2/A375S.2, HUVEC) (human) (UniProt P06756); assay: cell-based or functional assay
[2] = biological target: αvβ3 and αvβ5 integrins on cells that express both (M21, A375S2/A375S.2, HUVEC) (human) (UniProt P06756); assay: flow cytometry on M21 cells; FITC-goat anti-human Fc-labeled CNTO95 at 2 µg/mL, saline instead of competitor
[3] = biological target: αvβ3 and αvβ5 integrins on cells that express both (M21, A375S2/A375S.2, HUVEC) (human) (UniProt P06756); assay: flow cytometry on M21 cells; FITC-goat anti-human Fc-labeled CNTO95 at 20 µg/mL, saline instead of competitor
[4] = biological target: human αvβ3 integrin on cells (human) (UniProt P06756); assay: flow cytometry on M21 cells; signal of the competitor FITC-labeled CNTO95 at 2 µg/mL; row antibody at 20 µg/mL; parameters: % Positive: reference not given here
[5] = biological target: human αvβ3 integrin on cells (human) (UniProt P06756); assay: flow cytometry on M21 cells; signal of the competitor FITC-labeled CNTO95 at 20 µg/mL; row antibody at 20 µg/mL
[6] = biological target: human αvβ5 integrin on cells (human) (UniProt P06756); assay: flow cytometry on M21 cells; signal of the competitor FITC-labeled CNTO95 at 2 µg/mL; row antibody at 20 µg/mL; parameters: % Positive: reference not given here
[7] = biological target: human αvβ5 integrin on cells (human) (UniProt P06756); assay: flow cytometry on M21 cells; signal of the competitor FITC-labeled CNTO95 at 20 µg/mL; row antibody at 20 µg/mL
[8] = scale: % of cell adhesion in the absence of antibody

Q: CNTO 95 (antibody) was tested. Which minimal concentration for complete inhibition of MDAMB435L2 cell adhesion to vitronectin [1] did it give?
A: Its minimal concentration for complete inhibition of MDAMB435L2 cell adhesion to vitronectin is 1.5 µg/mL.

Q: What about the A375S.2 cell adhesion to fibrin, antibody 10 µg/ml [1, 8] of the same substance?
A: Its A375S.2 cell adhesion to fibrin, antibody 10 µg/ml is 43.3.

Q: What about the A375S.2 cell adhesion to fibrinogen, antibody 10 µg/ml [1, 8] of the same substance?
A: Its A375S.2 cell adhesion to fibrinogen, antibody 10 µg/ml is 11.4.

Q: What about the A375S.2 cell adhesion to gelatin, antibody 10 µg/ml [1, 8] of the same substance?
A: The A375S.2 cell adhesion to gelatin, antibody 10 µg/ml was 23.2.

Q: And the A375S.2 cell adhesion to vitronectin, antibody 10 µg/ml [1, 8]?
A: The A375S.2 cell adhesion to vitronectin, antibody 10 µg/ml was 1.4.

Q: What about the HUVEC adhesion to fibrin, antibody 10 µg/ml [1, 8] of the same substance?
A: Its HUVEC adhesion to fibrin, antibody 10 µg/ml is 45.1.

Q: And the HUVEC adhesion to fibrinogen, antibody 10 µg/ml [1, 8]?
A: Its HUVEC adhesion to fibrinogen, antibody 10 µg/ml is 34.5.

Q: And the HUVEC adhesion to gelatin, antibody 10 µg/ml [1, 8]?
A: Its HUVEC adhesion to gelatin, antibody 10 µg/ml is 54.8.

Q: What about the HUVEC adhesion to vitronectin, antibody 10 µg/ml [1, 8] of the same substance?
A: Its HUVEC adhesion to vitronectin, antibody 10 µg/ml is 3.3.

Q: What about the MCF (median channel fluorescence) [2] of the same substance?
A: The MCF (median channel fluorescence) was 4.33.

Q: What about the MCF (median channel fluorescence) [3] of the same substance?
A: Its MCF (median channel fluorescence) is 14.3.

Q: For LM609 (antibody), which % Positive [4] is on record?
A: Its % Positive is 110%.

Q: What about the MCF (median channel fluorescence) [4] of the same substance?
A: Its MCF (median channel fluorescence) is 4.78.

Q: What about the % Positive [5] of the same substance?
A: Its % Positive is 93%.

Q: What about the MCF (median channel fluorescence) [5] of the same substance?
A: The MCF (median channel fluorescence) was 13.3.

Q: For P1F6 (antibody), which % Positive [6] is on record?
A: Its % Positive is 112%.

Q: And the MCF (median channel fluorescence) [6]?
A: Its MCF (median channel fluorescence) is 4.87.

Q: And the % Positive [7]?
A: Its % Positive is 101%.

Q: And the MCF (median channel fluorescence) [7]?
A: The MCF (median channel fluorescence) was 14.5.

Q: How did the % Positive [4] turn out when m7E3 IgG (antibody) was run?
A: Its % Positive is 132%.

Q: What about the MCF (median channel fluorescence) [4] of the same substance?
A: The MCF (median channel fluorescence) was 5.73.

Q: And the % Positive [5]?
A: Its % Positive is 103%.

Q: And the MCF (median channel fluorescence) [5]?
A: The MCF (median channel fluorescence) was 14.7.
